The text below walks through data of patent publication US9487562B2, “Stabilized polypeptides as regulators of RAB GTPase function” (President and Fellows of Harvard College, priority 2011, dated 2016).

“Also recorded” adds a separate entry of the source. Bridge positions count the residues as written; N and C are the ends. Square brackets hold non-standard residues; d marks the D form. Ends that are not written are not given here. * marks the point of attachment. FITC = O=C1OC2(c3ccc(O)cc3Oc3cc(O)ccc32)c2ccc(NC(=S)*)cc21; Met(O) = CS(=O)CC[C@H](N)C(=O)O; S5 = C=CCCC[C@](C)(N)C(=O)O

Data set [1] has as its target T1, RAB25 (Homo sapiens, UniProt P57735).
T1 construct: RAB25 (residues E7-Q180) was expressed with an N-terminal GST- and hexahistidine tag; made in house; host or cells: Escherichia coli BL21(DE3) pLysS
T1 sequence (P57735 7-180): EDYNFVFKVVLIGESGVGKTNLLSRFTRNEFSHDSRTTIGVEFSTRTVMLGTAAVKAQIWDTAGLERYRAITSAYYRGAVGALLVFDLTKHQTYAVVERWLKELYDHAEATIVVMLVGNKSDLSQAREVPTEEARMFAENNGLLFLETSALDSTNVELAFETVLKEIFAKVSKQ
Description: Fluorescence polarization binding of FITC-FIP/FITC-RFP peptides to RAB25. As to conditions: FITC peptide 15 nM. The method, then: (§1) RAB11/25 protein binding assays were performed by incubating FITC-FIP or FITC-RFP (stapled FIP derivatives) peptides (15 nM) with three-fold dilutions of recombinantly-expressed, purified RAB11, RAB25 or a various epitope-tagged version of either in protein-binding buffer (25 mM Tris-HCl, pH 8.0, 150 mM NaCl, 1 mM EDTA, 1 mM DTT, 10 mM MgCl2, 10 mM GTP). Dilutions and incubations were made in 384-well, black flat-bottom plates (Corning) to a total volume of 40 μL and equilibrated for 60 minutes. Polarization was measured on a Spectramax-M5 multi-label plate reader with λex=485 nm and λem=525 nm. Polarization was calculated according to the standard equation: P=(V−H)/(V+H), where P=polarization, V=vertical emission intensity and H=horizontal emission intensity. Kd values were determined by fitting data to a variable-slope sigmoidal binding curve using Prizm 4 graphing software.
(§2) RAB11 and RAB25 proteins were expressed and purified in Escherichia coli strain BL21(DE3) pLysS (Stratagene) as epitope-tagged fusion proteins in various vectors (Novagen). RAB25 (residues E7-Q180) was expressed with an N-terminal GST- and hexahistidine tag with internal thrombin and TEV cleavage sites (GST-H6-RAB25) (SEQ ID NO: 86) in a pET41-1 vector (Novagen) or with an N-terminal hexahistidine tag alone with an internal thrombin cleavage site (H6-RAB25) (SEQ ID NO: 86) in a pET28 vector (Novagen). FIP3 protein (residues 649-756) was expressed with an N-terminal GST-tag with an internal TEV cleavage site (GST-FIP3) in a pGEX6p-1 vector (Novagen). RAB11 (residues 1-175) was expressed with an N-terminal GST-tag with an internal thrombin cleavage site in a pGEX5x-1 vector (Novagen). Transformed bacteria was grown at 37° C. until an OD600=0.8 was reached, at which point the culture was induced with 0.5 mM isopropyl β-D-1-thiogalactopyranoside (IPTG). Induced cells were grown at 30° C. for 6 hours, pelleted and lysed in binding buffer (25 mM Tris-HC;, pH 8.0, 150 mM NaCl, 1 mM EDTA, 1 mM DTT, 10 mM MgCl2, 10 mM GTP) supplemented with a complete protease inhibitor tablet (Roche) by sonication on ice. The lysate was centrifuged at 14,000 rpm to clear insoluble matter prior to loading onto Ni-NTA resin (Qiagen) for hexahistdine-tagged constructs or on GST-bind agarose resin (Biorad) for GST-tagged constructs. The protein-bound bead slurry was washed 4× with ˜20 mL of buffer and retained protein was eluted with either 250 mM imidazole or 20 mM glutathione in buffer for H6-(SEQ ID NO: 86) or GST-proteins, respectively. The eluent was concentrated using a 30 kD exclusion filter and purified by size-exclusion chromatography on a Superdex-75 Column (Amersham Pharmacia Biotech). Fractions containing purified protein were pooled, concentrated and dialyzed into binding buffer or other similar buffer for specific biochemical assays.
(In general: In fluorescence polarisation assays a small probe gives low polarisation when free and higher when bound to something large.)

Data set [2] addresses T2, RAB11 (Homo sapiens, UniProt P62491).
T2 construct: RAB11 (residues 1-175) was expressed with an N-terminal GST-tag with an internal thrombin cleavage site; GST (thrombin cleavage site between tag and RAB11) (N); made in house; host or cells: Escherichia coli BL21(DE3) pLysS
T2 sequence (P62491 1-175): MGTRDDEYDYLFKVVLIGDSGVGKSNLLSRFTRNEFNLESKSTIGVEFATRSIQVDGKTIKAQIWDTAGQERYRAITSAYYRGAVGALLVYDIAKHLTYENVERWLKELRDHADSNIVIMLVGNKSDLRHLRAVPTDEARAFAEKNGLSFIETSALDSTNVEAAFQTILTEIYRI
Description: Fluorescence polarization binding of FITC-FIP/FITC-RFP peptides to RAB11. As to conditions: for binding affinity to RAB11: FITC peptide 15 nM, fluorescence polarization; for binding to RAB11: in the presence and absence of GTP, FITC peptide. As for the experimental part: Fluorescence polarization (FP) was used to measure FIP peptide binding to RAB11 and RAB25 proteins. […] This indicated specificity in the binding measurement, as this subtle change would be expected to perturb binding.
as §1, §2

A short description of data set [3]: Peptide thermal stability by CD at 222 nm. The data set is classed as physicochemical. Particulars: CD at 222 nm over 10-90° C. The method, then: Peptide thermal stability was measured by scanning the peptide CD at 222 nm over a temperature range (10-90° C.). A sigmoidal unfolding curve was apparent for helices of unmodified FIP peptides (FIP4) with a Tm of ˜34° C. (FIG. 12A).
Peptide thermal stability experiments were performed in a similar manner to circular dichroism experiments in Example 5. Peptide solutions were cooled to 10° C. in a temperature controlled CD-chamber and circular dichroism absorbance at 222 nm was measured at 1 degree intervals while the solution was heated to 90° C. 222 nm CD values were plotted as a function of temperature and fitted to a sigmoidal denaturation curve, with the half-maximal temperature representing the Tm.

The nature of data set [4]: Circular dichroism spectra / percent helicity. The data set is classed as physicochemical. Particulars: 20° C. in water, peptides at 50 μM. As for the experimental part:
We next investigated the structural stability of the RFPs by obtaining circular dichroism (CD) spectra for each peptide. All measurements were made at 20° C. in water with peptides at 50 μM. […] By comparison, stapled FIP peptides (RFPs) show helical CD spectra indicated by minima at approximately 208 and 222 nm (FIG. 11B).
A circular dichroism spectrometer (Jasco J-710, Japan) was used to determine the α-helical content of all peptides. Peptides were dissolved in water to a final concentration of 50 μM in a quartz cuvette with a path length of 1 cm. Absorbance values were taken at 1 nm intervals between 190 and 260 nm for buffer alone and for peptide solutions. The background (buffer) spectrum was subtracted from experimental spectra, which were subsequently subjected to baseline-normalization and curve-smoothing within the spectrometer software. Percent-helicity was calculated from the absorbance at 222 nm using helical models as previously reported in Chen Y H et al., Biochemistry, 13, 3350-9 (1974).
A general note: Circular dichroism is widely used to follow secondary structure.

For data set [5], the system named is RAB25. The data set can be described thus: Fluorescence polarization binding of FITC-FIP/FITC-RFP peptides to RAB25. As for the experimental part: as §1, §2
The target in data set [6] is RAB25 (UniProt P57735). The data set can be described thus: ALPHAscreen competition. (In general: In Alpha technology, singlet oxygen from a donor bead excites a nearby acceptor bead.)
Data set [7] concerns the target GST-H6-RAB25 (UniProt P57735). Description: AlphaScreen competition.
For data set [8], the target named is RAB11 (UniProt P62491). Description: fluorescence polarization.
Data set [9] deals with RAB25 (UniProt P57735). Description: fluorescence polarization.
The target in data set [10] is GST-RAB11 (UniProt P62491). Description: … titration (hook effect), approximately 10 nM GST-RAB11.

FIP3 protein, sequence (O75154 649-756): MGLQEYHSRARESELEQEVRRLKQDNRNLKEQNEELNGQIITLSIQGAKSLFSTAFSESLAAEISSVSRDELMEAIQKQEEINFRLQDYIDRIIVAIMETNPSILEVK

As to “RFP31: triple-alanine mutant negative control, SEQ ID NO: 84 (RINFRLQNXIDRXAARIAETNPSILEVK; not fully specified; hydrocarbon staple)”, the “binding affinity to RAB25” value in [1] was “negligible affinity”. For the same molecule, in data set [2], the “binding affinity to RAB11” value was “negligible affinity”.
“RFP17: stapled FIP peptide of second design set, SEQ ID NO: 78 (FIG. 7, top to bottom) (RINFRLQN[S5]IDR[S5]IVRIFETNPSILEVK; staple 9-13; not fully specified (C-terminus))”: in data set [3], the Tm worked out at 54 °C. Moreover, in [2] (ratio of affinities RAB11 vs RAB25), the “bias for RAB11 versus RAB25” value is “equivalent affinity”.
As to “FIP4: wild-type unmodified FIP4 peptide (EQEEINFRLRQYMDKIILAILDHNPSILEIKH) [reference compound]”, the “CD curve shape / secondary structure” value in data set [4] was “partially unfolded/helical structure”. Further, in data set [3], the Tm is roughly 34 °C. Moreover, the “binding affinity to RAB25” value in data set [1] was “micromolar”. The “relative affinity RAB11 versus RAB25 (selectivity)” value in data set [5] was “tighter binding to RAB11 than RAB25”. In [2], the “binding affinity to RAB11” value was “micromolar”.
Turning to “FIP3 protein (from UniProt O75154 649-756)”, the figures for the IC50 in data set [6] and in data set [7] were 10.1 µM and 10 µM, respectively.
Take “FIP1: unmodified RAB family interacting protein 1 (class I) peptide (KKEFQVRELEDYIDNLLVRVMEETPNILRIPA) [reference compound]”: the “binding affinity to RAB25” value in [1] is “little or no binding”. Moreover, in [2], the “binding affinity to RAB11” value is on record as “little or no binding”.
Regarding FIP3(726-56), the IC50 in data set [6] was found to be 14.1 µM.
In the case of “FIP2: unmodified RAB family interacting protein 2 peptide (ERDTHIRELEDYIDNLLVRVMEETPSILRVPY) [reference compound]”, the “binding affinity to RAB25” value in data set [1] is on record as “little or no binding”. Moreover, the “binding affinity to RAB11” value in data set [2] was “little or no binding”.
On to “FITC-RFP1: unmodified FIP3 peptide conjugated to FITC ({FITC}-KQEEINFRLQDYIDRIIVAIMETNPSILEVK)”, for which the “binding to RAB11” value in data set [2] was “dose-dependent binding”.
Regarding unmodified FIP3 peptide, the values for the dissociation constant Kd in [8] and in data set [9] were 1700 nM and greater than 5 µM, respectively.
In the case of “FITC-RFP1-Ox: chemical derivative of FITC-RFP1 containing an oxidized methionine at a critical hydrophobic interaction site with RAB11 ({FITC}-KQEEINFRLQDYIDRIIVAI[Met(O)]ETNPSILEVK)”, the “binding to RAB11” value in [2] was “decreased binding; also recorded: dose-dependent binding”.
On to “RFP24: stapled FIP peptide containing an E-R mutation to increase overall charge, SEQ ID NO: 82 (RINFRLQN[S5]IDR[S5]IVRIFETNPSILRVK; staple 9-13; not fully specified (C-terminus))”, for which, in [1], the “binding affinity to RAB25” value is “retained binding affinity”.
ERDTHIRELEDYIDNLLVRVMEETPSILRVPY (also: N-terminal FITC (FP) or biotin (ALPHASCREEN)) [unmodified FIP2 peptide]: the concentration of biotinylated peptide at maximum signal in data set [10] turned out to be 40 nM.

The Tm is the temperature at the midpoint of the melting transition. As a reminder, the IC50 is the midpoint of a concentration-inhibition curve. Read a low IC50 as greater potency in that assay. In general, Kd refers to the constant that tells how readily two partners part at equilibrium. A low value points to tighter binding.
